Assay results from patent US20070265189A1 (published 2007).
Blank lines part the entries; values can stand above or below the binder they belong to.

Columns and labels:
[1] = biological target: T1, human insulin receptor (HIR) (human, UniProt P06213 28-1382, limits assumed); assay: competition with 125I-insulin, solubilised HIR
[2] = biological target: T2, soluble human insulin receptor-immunoglobulin heavy chain chimera (sIR-Fc) (human, UniProt P06213 28-956, limits assumed); assay: fluorescence polarization; competitor against 1 nM FITC-RP9 on sIR-Fc
T2 construct: extracellular domain; Construct of Bass et al., 1996; not shown: immunoglobulin heavy chain constant domains

[3] = biological target: T3, recombinant human IGF-1R (rhIGF-1R) (human, UniProt P08069 31-935); assay: TR-FRET; competitor against 15 nM b-20E2 on Eu-labeled rhIGF-1R
T3 construct: extracellular domain; Coated on plates in the DELFIA assay and Eu3+ (LANCE) labeled in the TR-FRET assays

[4] = biological target: T4, human insulin receptor (HIR) (human, UniProt P06213 28-1382, limits assumed); assay: 125I-insulin displacement, purified HIR
T4 construct: solubilised receptor

[5] = biological target: T5, soluble HIR ectodomain (sIR) (human, UniProt P06213 28-956, limits assumed); assay: FP on sIR, competitor FITC-RP9
T5 construct: extracellular domain
Source text: Fluorescence polarization assays (FP) were used for peptide competition studies.

[6] = biological target: T6, soluble human insulin receptor-immunoglobulin heavy chain chimera (sIR-Fc) (human, UniProt P06213 28-956, limits assumed, Eu3+ (LANCE) label in the TR-FRET assays); assay: FP on sIR-Fc, competitor FITC-RP9
T6 construct: extracellular domain; Construct of Bass et al., 1996; also called HIR-immunoglobulin heavy chain chimera; not shown: immunoglobulin heavy chain constant domains

[7] = biological target: T6, soluble human insulin …; assay: TR-FRET on Eu-sIR-Fc, competitor b-S175
Procedure: (§1) The TR-FRET assays were performed in a 384-well white microplate with a final volume of 30 μl.

[8] = biological target: T6, soluble human insulin …; assay: TR-FRET on Eu-sIR-Fc, competitor b-RP9
Procedure: Time-resolved fluorescence resonance energy transfer assays (TR-FRET) were used for peptide competition studies.
as §1

[9] = biological target: T1, human insulin receptor (HIR); assay: radio-receptor assay on HIR, competitor 125I-insulin

Kd [1]: 0.62 nM
B1: S595 (peptide)
peptide: LEEEWAQIQREVWHSPASESFYDWFERQL

Kd [1]: 0.045 nM
B4: S596 (peptide)
peptide: SLEEEWAQIQHELYGPAESESFYDWFERQL

Kd [1]: 0.018 nM
B5: S561 (peptide)
peptide: SLEEEWAQIECEVWGRGCSGSLDESFYDWFERQL

IC50 [5]: 0.2 nM
B6: S414 (peptide)
peptide 1: ESFYDWFERQLGKX
peptide 2: ESFYDWFERQLGKX
modifications: C-terminal Lig′ joined to chemical linker 14
notes: Lig′ = lysine with a 2-aminohydroxyacetyl group on the side chain amino group; also called (truncated(-GSLD)RP9(-KK))2-14

Kd [1]: 2.2 nM
B7: S593 (peptide)
peptide: SIEEEWAQIKCDVWGRGCPSY

The next lines start with the binder.

B2: H2C (D117) (peptide)
peptide: FHENFYDWFVRQVSKK
IC50 [2]: 66 nM
IC50 [3]: 460 nM

B3: S229 (peptide)
peptide 1: SDGFYNAIELLSX
peptide 2: KHLCVLEELFWGASLFGYCSGKKX
modifications: C-terminal Lig joined to linker 12
notes: heterodimer F2-F4, C-C
Kd [4]: 4.4 nM

B8: S327 (peptide)
peptide: TFYSCLASLLTGTPQPNRGPWERCRKK
Kd [4]: 2700 nM

B9: S300 (peptide)
peptide 1: DWLQRNANFYDWFVAELX
peptide 2: DWLQRNANFYDWFVAELX
modifications: C-terminal Lig′ joined to linker 14
notes: dimer, C-C
Kd [4]: 50 nM

B10: H2C (peptide)
peptide: FHENFYDWFVRQVSKK
notes: also called D117
IC50 [6]: 50 nM
IC50 [5]: 37 nM
IC50 [7]: 410 nM
IC50 [8]: 1630 nM
IC50 [9]: 700 nM

B11: S337 (peptide)
peptide 1: GSLDESFYDWFERQLGKKX
peptide 2: GSLDESFYDWFERQLGKKX
modifications: C-terminal Lig′ joined to chemical linker 23
notes: C-C dimer through chemical linker 23; also called (RP9-Lig)2-23
IC50 [6]: 1 nM
IC50 [5]: 0.2 nM
IC50 [7]: 0.2 nM

B12: S380 (peptide)
peptide 1: EEDWLQRNANFYDWFVAELX
peptide 2: EEDWLQRNANFYDWFVAELX
modifications: C-terminal Lig′ joined to chemical linker 9
notes: C-C dimer through chemical linker 9; also called (EE-short-S175-Lig)2-9
IC50 [5]: 0.5 nM
IC50 [7]: 10 nM
